Substitutions are numbered along the chain they refer to. In names and notes the source's numbering stands. Where no end group is shown, it is not given here. [ ]: non-standard residue; d: D form.
B1: G-Ct-G peptide GERAIPVSREG with L-Ser (appended-glycine L-isomer) (peptide)
peptide: GERAIPVSREG
B2: Full-length αB-crystallin (WT) (natural protein, human, UniProt P02511 1-175, looked up)
chain: MDIAIHHPWIRRPFFPFHSPSRLFDQFFGEHLLESDLFPTSTSLSPFYLRPPSFLRAPSWFDTGLSEMRLEKDRFSVNLDVKHFSPEELKVKVLGDVIEVHGKHEERQDEHGFISREFHRKYRIPADVDPLTITSSLSSDGVLTVNGPRKQVSGPERTIPITREEKPAVTAAPKK
notes: αB-crystallin, human, full length; Polydisperse oligomers; also called WT αB
B3: Full-length αB-crystallin S59D (phosphomimic) (natural protein, human, UniProt P02511 1-175, looked up)
chain: B2 chain with S59D
notes: αB-crystallin, human, full length, with S59D; also called αBS59D; source: expressed and purified in the same manner as WT
B4: Full-length αB-crystallin D109A (isoAsp-mimic) (natural protein, human, UniProt P02511 1-175, looked up)
chain: B2 chain with D109A
notes: αB-crystallin, human, full length, with D109A; source: expressed and purified in the same manner as WT
B5: Core αB (cABC, residues 68–153) (domain or fragment, human, UniProt P02511 68-153, looked up)
chain: MRLEKDRFSVNLDVKHFSPEELKVKVLGDVIEVHGKHEERQDEHGFISREFHRKYRIPADVDPLTITSSLSSDGVLTVNGPRKQVS
notes: αB-crystallin, human, α-crystallin core domain, residues 68-153; also called αB core; core of αB
B6: Ct peptide ERAIPVSRE with L-Ser (canonical all L-amino acid form) (peptide)
peptide: ERAIPVSRE
B7: C-terminal palindromic peptide of αA-crystallin with D-Ser-162 (D-peptide) (peptide)
chain: ERAIPV[dS]RE

Experiments:
[1] = target: core αA (cAAC, residues 59–153) (human, UniProt P02489 59-153, some population of BME-adducted protein); assay: native MS; competition: core domain 10 μM mixed with an L-Ser and a D-Ser peptide (one with added glycines), 40 μM each (4:1 peptide/domain), 200 mM ammonium acetate pH 6.9; monomeric species, 5+, 6+, 7+ charge states quantified; settings: both partners purified
Chain of core αA (cAAC, residues 59–153) (P02489 59-153): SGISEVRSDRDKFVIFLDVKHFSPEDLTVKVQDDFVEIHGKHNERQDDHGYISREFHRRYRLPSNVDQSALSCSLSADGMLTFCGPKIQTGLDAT

[2] = target: B5; assay: as above; settings: both partners purified
[3] = target: the molecule itself; assay: native MS; full-length αB and mutants, 15 μM by monomer, 200 mM ammonium acetate pH 6.9, QExactive Orbitrap; intact spectra and CID with charge deconvolution (UniDec) to oligomeric distributions
[4] = target: the molecule itself; assay: native MS; core domains analysed alone, 10 μM, 200 mM ammonium acetate pH 6.9, Synapt G1
[5] = target: core αA (cAAC, residues 59-153) (human, UniProt P02489 59-153, some population of BME-adducted protein); assay: native MS; competition: 10 μM core domain with 40 μM each of L-Ser and D-Ser peptide, 200 mM ammonium acetate pH 6.9; monomeric species, 5+, 6+ and 7+ charge states; approximate dissociation constants calculated from abundance ratios (El-Hawiet et al.); settings: both partners purified
Chain of core αA (cAAC, residues 59-153) (P02489 59-153): as above

B1: binds [1]; binds [2].

B2: binds [3].

In the case of B3, the “stoichiometry N” value [3] is reported as about 18.

B4: binds [3].

In the case of B5, the “stoichiometry N” value [4] is reported as 2.

B6 was tested, and the Kd [1] was 48 µM and the Kd [2] was 115 µM.

For B7, the Kd [5] was 660 µM.
